B1: 238D2: Nanobody (VHH) raised against human CXCR4, SEQ ID NO: 238 (protein)
VHH: EVQLVESGGGLVQTGGSLRLSCAASGFTFSSYAMSWVRQAPGKGLEWVSGIKSSGDSTRYAGSVKGRFTISRDNAKNMLYLQMYSLKPEDTAVYYCAKSRVSRTGLYTYDNRGQGTQVTVSS
modifications: Nanobody, Nanobody constructs or fragments thereof
B2: 238D4: Nanobody (VHH) raised against human CXCR4, SEQ ID NO: 239 (protein)
VHH: EVQLMESGGGLVQAGGSLRLSCAASGRTFNNYAMGWFRRAPGKEREFVAAITRSGVRSGVSAIYGDSVKDRFTISRDNAKNTLYLQMNSLKPEDTAVYTCAASAIGSGALRRFEYDYSGQGTQVTVSS
modifications: Nanobody, Nanobody constructs or fragments thereof

Biological target: CXCR4 (Homo sapiens, UniProt P61073)
Assay: [125I]-CXCL12 competition binding on membranes from HEK293T cells transiently expressing CXCR4
Details: for affinity to CXCR4: in words; for displacement of specifically bound [125I]-CXCL12: purified ligands, highest Nanobody test concentration 0.5 μM; for Binding (binding efficiency, competition binding with [125I]-CXCL12): screening of Nanobody clone pools
Procedure: HEK293T cells were maintained at 37° C. in a humidified 5% CO2, 95% air atmosphere in Dulbecco's modified Eagle's medium (DMEM) containing 2 mM L-glutamine, 50 IU/ml penicillin, 50 μg/ml streptomycin, and 10% (v/v) fetal calf serum. Jurkat cells were cultured in a humidified 5% CO2, 95% air atmosphere in a 1:1 mixture of Dulbecco's modified Eagle's medium (DMEM) and Ham's F12 medium containing 2 mM L-glutamine, 50 IU/ml penicillin, 50 μg/ml streptomycin, and 10% (v/v) fetal calf serum. […] [^125 I]-Labelling— Radiolabeling of Nanobodies with ^125I was performed using the Iodo-gen method (Pierce, Rockford, Ill.) according to the manufacturer's protocol. ^125I-labeled Nanobodies was separated from free iodine (>99%) using a Sephadex G-25 gel filtration column (Amersham Biosciences, Piscataway, N.J.). […] Competition Binding Assays— Membranes from HEK293T cells transiently expressing CXCR3 or CXCR4 were prepared 48 h after transfection as follows. Cells were washed and scraped from the cell culture dishes with ice-cold PBS containing 1 mm EDTA. The scraped cells were pelleted at 1500×g for 10 min at 4° C. The pellet was washed and then resuspended in ice-cold membrane buffer (15 mM Tris, pH 7.5, 1 mM EGTA, 0.3 mM EDTA, and 2 mM MgCl2). The cell suspension was homogenized by 10 strokes at 1200 rpm using a Teflon-glass homogenizer and rotor and further subjected to three freeze-thaw cycles using liquid nitrogen. Membranes were separated by centrifugation at 40,000 g for 25 min at 4° C. The membrane pellet was washed and resuspended in ice-cold Tris-sucrose buffer (20 mM Tris, pH 7.4, and 250 mM sucrose) and frozen in liquid nitrogen. The total protein was determined using a Bradford assay (Bio-Rad). […] Membranes were then harvested over polyethylenimine (0.5%)-treated Whatman GF/C filter plates and washed three times with ice cold binding buffer containing 500 mM NaCl. Plates were counted by liquid scintillation. Inositol Phosphate Accumulation Assay— 24 hours post transfection with pcDNA3.1-CXCR4 and pcDNA1-HA-mG {alpha} qi5 (see Verzijl et al, 2008 supra), 250.000 cells were seeded into 24-wells plates and labelled overnight using inositol-free minimal essential medium supplemented with 1 μCi myo-[2-^3H]-inositol. The next day, the cells were washed once to remove not incorporated myo-[2-^3H]-inositol. […] In agonist experiments, the cells were directly stimulated with test compounds and LiCl (10 mM) in assay buffer for 2 h at 37° C. The stimulation was stopped by aspirating the stimulation medium and adding ice-cold 10 mM formic acid. The accumulated inositol phosphates were isolated by anion exchange chromatography and counted by liquid scintillation. CRE Reporter Gene Assay— HEK239T cells were transfected with pCRE/β-galactosidase (Chen W, Shields T S, Stork P J S, Cone R D (1995) Anal Biochem 226:349-354) and plasmids (pcDEF3 or pcDNA3.1) encoding the indicated receptors. 40,000 transfected cells per well were seeded into 96 well plates and grown in DMEM supplemented with 10% fetal calf serum. The medium was replaced 32 h after transfection by serum-free DMEM supplemented with 0.5% bovine serum albumin and ligands as indicated. […] The β-galactosidase activity was determined by the measurement of absorption at 420 nm with a PowerwaveX340 plate reader (Bio-Tek Instruments Inc., Winooski, Vt.) after incubation with the assay buffer when the OD420 value for forskolin (3 μM) controls reached 0.4-0.6. Chemotaxis Assay— The chemotactic responsiveness of Jurkat 3D cells was assessed using ChemoTx™ plates (Receptor Technologies Ltd., Oxon, UK) in which a upper cell-containing compartment is separated from a lower chemoattractant-containing compartment by a polyvinylpyrollidone-free polycarbonate filter with 5-μm pores. Cells were harvested, washed and resuspended in RPMI containing 0.5% bovine serum albumin and then loaded to 150,000 cells per well in a volume of 25 μl into the upper compartment of the chemotaxis chamber.

[1] = membranes from HEK293T cells transiently expressing CXCR4, mean ± S.E.M.
[2] = membranes from HEK293T cells transiently expressing CXCR4

CXCR4, sequence (P61073 whole entry): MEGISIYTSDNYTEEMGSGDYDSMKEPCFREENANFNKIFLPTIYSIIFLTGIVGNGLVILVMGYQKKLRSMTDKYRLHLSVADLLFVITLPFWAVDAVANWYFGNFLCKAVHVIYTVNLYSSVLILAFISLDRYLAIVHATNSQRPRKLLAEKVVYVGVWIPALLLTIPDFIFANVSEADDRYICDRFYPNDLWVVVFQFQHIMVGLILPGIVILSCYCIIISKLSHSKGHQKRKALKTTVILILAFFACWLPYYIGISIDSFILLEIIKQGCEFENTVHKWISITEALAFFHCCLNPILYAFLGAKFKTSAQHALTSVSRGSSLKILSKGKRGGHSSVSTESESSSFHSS

Molecule | affinity to CXCR4 | Displacem. (%) of [125I]-CXCL12 (maximal displacement) [1] [%] | pKi, [125I]-CXCL12 [1] | displacement of specifically bound [125I]-CXCL12 | Binding (binding efficiency, competition binding with [125I]-CXCL12) [2]
B1 | low nanomolar range | 93 ± 5 | 8.01 ± 0.12 | fully displace | ++ (++ = 70-100%)
B2 | low nanomolar range |  |  | fully displace | ++ (++ = 70-100%)
